Experimental data published in patent US20160138027A1 (Stanford University, published 2016).

What was measured:
p62 = biological target: T1, p62 (human, UniProt Q13501 2-440); experiment: FLAG co-immunoprecipitation from cross-linked HEK293T lysates, western blot (FIG. 6C)
T1 construct: Endogenous protein probed with anti-p62 from BD Transduction Laboratories
Method: (§1) HEK293T cells were transfected with either MORTOR-3×FLAG or FLAG alone for 22 or 42 hours later. Cells were then starved of amino acids and serum for 4 hours and re-stimulated with amino acids for 5 minutes or left untreated. Cells were cross-linked and harvested and FLAG immunoprecipitation was used to test for interactions with endogenous proteins. […] HEK293T cells were transfected with either MORTOR-3×FLAG, MORTOR-1×FLAG (CMV), or FLAG only and treated as in FIG. 6A.
(§2) One day before transfection, 2,000,000 HEK293T cells were plated in 10 cm culture dishes. The cells were transfected with 2 μg of cDNA expression vectors using Lipofectamine 2000 (Life Technologies). Four hours after transfection, the cells were washed and incubated in DMEM with 10% FBS without antibiotics for 18 hours. When amino acid sensitivity was investigated, cells were transfected for 18 or 38 hours followed by 4 hours of amino acid starvation. The cells were then stimulated with amino acid for 7 minutes. The cells were incubated in Triton X-100 lysis buffer (1% Triton X-100, 40 mM HEPES pH 7.4, 2 mM EDTA, 200 mM NaCl, phosSTOP and protease inhibitor cocktail (Roche)) for 1 hour, followed by sonication at 4° C. For in-cell crosslinking experiments, DSP was used as previously described (Sancak, Y., et al. (2008) “The Rag GTPases Bind Raptor and Mediate Amino Acid Signaling to MTORC1,” Science, 320:1496-1501) prior to cell lysis. The lysates were centrifuged at 20,000×g for 30 minutes. For immunoprecipitation, primary antibodies were cross-linked to Protein G beads (Life technologies) using DMP (Thermo scientific). For anti-FLAG-immunoprecipitation, the FLAG-M2 affinity gel (Life technologies) was used. The cleared lysates were incubated with the beads at 4° C. for 2 hours or overnight. The beads were washed five times with ice-cold lysis buffer. Immunoprecipitated proteins were denatured in the SDS sample buffer and separated by SDS-PAGE. The intensity of bands were quantified using ImageJ (NIH).

Rictor = biological target: T2, Rictor (human, UniProt Q6R327 1-1708); experiment: as above
T2 construct: Endogenous protein probed in the co-immunoprecipitate
Method: as §1, §2

ATP6V1A = biological target: T3, ATP6V1A (human, UniProt P38606 1-617); experiment: as above
T3 construct: Endogenous protein probed in the co-immunoprecipitate
Method: as §1, §2

LRS = biological target: T4, LRS (human, UniProt Q9P2J5 1-1176); experiment: FLAG co-immunoprecipitation from HEK293T lysates, western blot
T4 construct: Endogenous protein probed in the co-immunoprecipitate; also called Leucyl tRNA synthetase
T4 sequence (Q9P2J5 whole entry): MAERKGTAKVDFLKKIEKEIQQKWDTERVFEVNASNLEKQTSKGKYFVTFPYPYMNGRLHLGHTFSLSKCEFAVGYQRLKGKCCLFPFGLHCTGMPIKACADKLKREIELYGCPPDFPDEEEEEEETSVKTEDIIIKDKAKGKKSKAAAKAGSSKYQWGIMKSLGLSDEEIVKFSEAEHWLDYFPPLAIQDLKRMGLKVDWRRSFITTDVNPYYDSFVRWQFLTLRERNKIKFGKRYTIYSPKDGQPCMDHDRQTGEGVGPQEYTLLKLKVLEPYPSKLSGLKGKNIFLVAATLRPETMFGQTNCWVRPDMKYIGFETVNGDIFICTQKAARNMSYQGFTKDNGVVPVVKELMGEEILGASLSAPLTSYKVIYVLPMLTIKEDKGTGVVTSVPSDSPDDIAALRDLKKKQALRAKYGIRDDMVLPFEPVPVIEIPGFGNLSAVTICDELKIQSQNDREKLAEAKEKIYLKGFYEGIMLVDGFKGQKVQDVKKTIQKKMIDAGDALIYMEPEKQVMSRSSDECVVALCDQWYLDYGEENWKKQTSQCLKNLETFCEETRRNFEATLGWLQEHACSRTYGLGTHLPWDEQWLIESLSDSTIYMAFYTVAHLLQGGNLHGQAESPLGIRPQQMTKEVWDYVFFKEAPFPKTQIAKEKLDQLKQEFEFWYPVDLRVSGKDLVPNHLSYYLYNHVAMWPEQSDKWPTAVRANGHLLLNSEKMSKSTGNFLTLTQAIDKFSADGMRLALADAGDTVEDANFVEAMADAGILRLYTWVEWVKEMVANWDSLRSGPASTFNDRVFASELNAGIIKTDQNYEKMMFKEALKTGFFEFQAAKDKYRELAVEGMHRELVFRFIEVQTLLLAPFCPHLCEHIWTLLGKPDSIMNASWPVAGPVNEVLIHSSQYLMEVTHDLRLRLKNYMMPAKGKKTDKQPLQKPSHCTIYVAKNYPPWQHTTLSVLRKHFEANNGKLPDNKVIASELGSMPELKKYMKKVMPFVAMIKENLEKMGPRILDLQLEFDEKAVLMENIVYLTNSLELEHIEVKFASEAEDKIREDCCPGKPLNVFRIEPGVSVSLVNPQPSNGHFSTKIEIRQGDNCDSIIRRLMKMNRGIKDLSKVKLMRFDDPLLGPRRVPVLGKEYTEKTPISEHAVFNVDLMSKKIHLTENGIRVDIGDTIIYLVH

T2 sequence (Q6R327 whole entry): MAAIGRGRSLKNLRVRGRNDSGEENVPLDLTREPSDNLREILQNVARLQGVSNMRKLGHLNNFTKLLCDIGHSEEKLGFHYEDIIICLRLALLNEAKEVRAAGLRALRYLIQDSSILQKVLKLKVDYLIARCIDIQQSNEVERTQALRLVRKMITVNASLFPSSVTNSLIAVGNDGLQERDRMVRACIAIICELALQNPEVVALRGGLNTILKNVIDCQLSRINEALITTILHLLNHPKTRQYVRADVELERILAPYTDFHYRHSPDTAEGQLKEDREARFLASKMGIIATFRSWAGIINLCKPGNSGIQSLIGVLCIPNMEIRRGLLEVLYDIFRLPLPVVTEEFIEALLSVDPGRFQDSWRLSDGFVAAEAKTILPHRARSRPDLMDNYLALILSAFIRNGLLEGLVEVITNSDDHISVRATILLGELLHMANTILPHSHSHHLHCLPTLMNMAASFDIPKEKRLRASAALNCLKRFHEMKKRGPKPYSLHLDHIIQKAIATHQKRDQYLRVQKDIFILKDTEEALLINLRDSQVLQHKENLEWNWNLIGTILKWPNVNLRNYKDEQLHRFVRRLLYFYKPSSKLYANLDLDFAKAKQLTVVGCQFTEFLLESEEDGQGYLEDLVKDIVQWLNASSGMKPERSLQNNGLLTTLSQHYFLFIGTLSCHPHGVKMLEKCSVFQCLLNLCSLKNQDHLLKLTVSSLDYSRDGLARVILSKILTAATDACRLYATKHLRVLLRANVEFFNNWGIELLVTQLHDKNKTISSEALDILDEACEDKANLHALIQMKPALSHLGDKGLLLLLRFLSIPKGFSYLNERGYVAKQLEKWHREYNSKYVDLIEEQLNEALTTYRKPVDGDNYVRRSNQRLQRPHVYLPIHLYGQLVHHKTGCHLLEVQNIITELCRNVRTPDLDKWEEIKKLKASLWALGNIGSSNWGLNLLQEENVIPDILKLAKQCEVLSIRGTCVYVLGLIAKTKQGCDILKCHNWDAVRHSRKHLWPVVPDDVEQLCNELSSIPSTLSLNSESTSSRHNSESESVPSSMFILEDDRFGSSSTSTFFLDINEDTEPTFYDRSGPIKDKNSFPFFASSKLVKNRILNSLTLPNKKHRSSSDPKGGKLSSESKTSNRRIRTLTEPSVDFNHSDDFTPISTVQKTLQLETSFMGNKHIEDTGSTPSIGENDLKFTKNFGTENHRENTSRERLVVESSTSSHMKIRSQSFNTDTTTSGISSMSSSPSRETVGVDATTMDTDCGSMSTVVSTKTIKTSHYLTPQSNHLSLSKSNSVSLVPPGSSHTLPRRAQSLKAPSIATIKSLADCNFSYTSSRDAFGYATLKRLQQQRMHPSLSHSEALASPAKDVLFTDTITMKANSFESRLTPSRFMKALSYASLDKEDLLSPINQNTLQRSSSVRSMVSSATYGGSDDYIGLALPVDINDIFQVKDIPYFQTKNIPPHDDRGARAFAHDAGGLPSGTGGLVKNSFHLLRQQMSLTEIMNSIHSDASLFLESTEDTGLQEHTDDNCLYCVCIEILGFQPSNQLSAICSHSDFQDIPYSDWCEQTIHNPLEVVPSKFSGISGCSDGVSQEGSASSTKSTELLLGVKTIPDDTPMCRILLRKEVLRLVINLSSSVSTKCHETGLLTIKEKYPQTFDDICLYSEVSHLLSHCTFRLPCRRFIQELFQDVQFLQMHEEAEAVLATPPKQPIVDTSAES
T3 sequence (P38606 whole entry): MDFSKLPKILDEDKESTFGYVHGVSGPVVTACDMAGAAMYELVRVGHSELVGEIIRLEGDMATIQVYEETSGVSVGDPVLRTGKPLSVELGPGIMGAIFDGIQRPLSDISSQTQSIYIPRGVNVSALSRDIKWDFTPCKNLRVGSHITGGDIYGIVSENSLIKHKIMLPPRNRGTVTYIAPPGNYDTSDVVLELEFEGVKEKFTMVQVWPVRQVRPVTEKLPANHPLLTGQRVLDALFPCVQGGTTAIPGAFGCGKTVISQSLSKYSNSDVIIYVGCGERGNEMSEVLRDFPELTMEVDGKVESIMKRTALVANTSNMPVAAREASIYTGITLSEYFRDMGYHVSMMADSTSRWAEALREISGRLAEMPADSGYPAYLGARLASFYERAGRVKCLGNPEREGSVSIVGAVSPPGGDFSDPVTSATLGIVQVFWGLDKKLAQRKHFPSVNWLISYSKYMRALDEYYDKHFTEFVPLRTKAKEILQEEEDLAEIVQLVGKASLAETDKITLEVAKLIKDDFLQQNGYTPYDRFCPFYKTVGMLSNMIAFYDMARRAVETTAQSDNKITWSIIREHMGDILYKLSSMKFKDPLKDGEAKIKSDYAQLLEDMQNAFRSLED

binding result (p62): no binding
binding result (Rictor): no binding
binding result (ATP6V1A): no binding
binding result (LRS): no binding
B1: MORTOR-3×FLAG (receptor)
chain: MRPERPRPRGSAPGPMETPPWDPARNDSLPPTLTPAVPPYVKLGLTVVYTVFYALLFVFIYVQLWLVLRYRHKRLSYQSVFLFLCLFWASLRTVLFSFYFKDFVAANSLSPFVFWLLYCFPVCLQFFTLTLMNLYFTQVIFKAKSKYSPELLKYRLPLYLASLFISLVFLLVNLTCAVLVKTGNWERKVIVSVRVAINDTLFVLCAVSLSICLYKISKMSLANIYLESKGSSVCQVTAIGVTVILLYTSRACYNLFILSFSQNKSVHSFDYDWYNVSDQADLKNQLGDAGYVLFGVVLFVWELLPTTLVVYFFRVRNPTKDLTNPGMVPSHGFSPRSYFFDNPRRYDSDDDLAWNIAPQGLQGGFAPDYYDWGQQTNSFLAQAGTLQDSTLDPDKPSLG
notes: Expressed from pBMN-GPR137b-3×FLAG in HEK293T or HeLa cells and immunoprecipitated from lysates on FLAG-M2 gel; also called GPR137b-3×FLAG; MORTOR-FLAG; not shown: 3×FLAG tag
